This is an account of results in patent US10822423 (TRUSTEES OF DARTMOUTH COLLEGE, dated 2020).

The target of the assay is T1, purified recombinant human CD40L (human, UniProt P29965 113-261, limits assumed).
T1 construct: also called hCD40L; CD154
T1 sequence (looked up): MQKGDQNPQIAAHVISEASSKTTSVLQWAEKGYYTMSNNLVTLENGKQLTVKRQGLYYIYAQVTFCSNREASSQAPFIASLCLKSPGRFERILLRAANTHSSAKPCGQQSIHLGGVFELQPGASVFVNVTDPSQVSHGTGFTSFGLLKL
Description: ELISA: recombinant human CD40L coated, detected with mouse anti-human IgG then HRP goat anti-mouse IgG. How it is done:
Both antibodies were purified by conventional methods and the binding activity of both recombinantly expressed antibodies to hCD40L was assayed. To measure anti-hCD40L variants binding to hCD40L, purified recombinant human CD40L was bound to a 96-well ELISA-grade plate. After blocking, anti-hCD40L variants were added followed by mouse anti-human IgG then horseradish peroxidase-labeled goat anti-mouse IgG. TMB color development was then quantitated at 450 nm by an ELISA reader.

B1: Antibody A (anti-human CD40L IgG1 antibody with V215A and E269R mutations in the human IgG1 constant region) (antibody, V domains shown)
VH: EVQLQESGPGLVKPSETLSLTCTVSGDSITNGFWIWIRKPPGNKLEYMGYISYSGSTYYNPSLKSRISISRDTSKNQFSLKLSSVTAADTGVYYCACRSYGRTPYYFDFWGQGTTLTVSS
VL: DIVMTQSPSFLSASVGDRVTITCKASQNVITAVAWYQQKPGKSPKLLIYSASNRYTGVPDRFSGSGSGTDFTLTISSLQPEDFADYFCQQYNSYPYTFGGGTKLEIK
notes: Human IgG1 with V215A and E269R in the constant region, expressed in HEK-293 Freestyle cells; also called anti-hCD40L variant
Consider B1, for which the binding result is “binds”.

B2: Antibody B (anti-human CD40L IgG1 antibody with V215A, E269R and K322A mutations in the human IgG1 constant region) (antibody, V domains shown)
VH: EVQLQESGPGLVKPSETLSLTCTVSGDSITNGFWIWIRKPPGNKLEYMGYISYSGSTYYNPSLKSRISISRDTSKNQFSLKLSSVTAADTGVYYCACRSYGRTPYYFDFWGQGTTLTVSS
VL: DIVMTQSPSFLSASVGDRVTITCKASQNVITAVAWYQQKPGKSPKLLIYSASNRYTGVPDRFSGSGSGTDFTLTISSLQPEDFADYFCQQYNSYPYTFGGGTKLEIK
notes: Human IgG1 with V215A, E269R and K322A in the constant region, expressed in HEK-293 Freestyle cells; also called anti-hCD40L variant
B2: the binding result was “binds”.
